# According to the RNAGym collection of RNA variant scans (doi:10.1073/pnas.2313332121):
# Variants at the floor of the assay were thinned out.
# B1: TPR 5TU (parent)
# chain: GGAUCUUCUCGAUCUAACAAAAAAGACAAAUCUGCCACAAAGCUUGAGAGCAUCUUCGGAUGCAGAGGCGGCAGCCUUCGGUGGCGCGAUAGCGCCAACGUUCUCAACUAUGACACGCAAAACGCGUGCUCCGUUGAAUGGAGUUUAUCAUG
# Variants of: B1
# Experiment: polymerase ribozyme fitness, log enrichment relative to wild type (log ratio); higher = more active; in vitro selection for triplet polymerase activity
# Procedure, shortened: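 A heterodimeric triplet polymerase ribozyme had each of its subunits mutagenized by PCR into a library, which was transcribed. One round of in vitro selection, done in triplicate, annealed each library with a biotinylated primer, its partner subunit and triplets, then incubated it frozen at −7 °C before gel excision of extended constructs, streptavidin-bead capture and RT-PCR. Fitness is the logarithm of genotype enrichment relative to wild-type enrichment, based on Illumina sequencing of inputs and outputs and inverse-variance-weighted replicate averages. A base-2 logarithm is used, and genotypes were kept only with ≥10 input reads and ≥1 read per output.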
row,Variant,polymerase ribozyme fitness (log ratio)
1,C18G A19U G42C G50C U90G G92U,≤ -4.2
2,A47U A49G G141A U145A,≤ -4.2
3,A89G C95G C132U,-3.36
4,G11U A22G C54U G65A C76U A98U C103G U144G,≤ -4.2
5,A47C A89G C118A G133U,≤ -4.2
6,C35A C95G,-4.1
7,G42A G88C,≤ -4.2
8,A24U G58C G88A C93U A121G,≤ -4.2
9,A16G A20U U33G C85A G94A A150C,≤ -4.2
10,A3U C76A C87U A113C U130A,≤ -4.2
11,C10U A24U U33G A41G U56A C85U A91C,≤ -4.2
12,C51U U53A U61A A97C G140A G143A,≤ -4.2
13,A16C A17U A20U C38A C57U A60C G84A C116G,≤ -4.2
14,U13G G92C,-2.36
15,A52C U101G,-1.56
16,C18G U44A C96G G133A A137U,-4.04
17,U6G A73U,-0.322
18,C51A C85A G141A,-1.93
19,C63U U148C,-1.65
20,A40U U55A C85A C116A,-0.563
21,G11U U56A A64G C118U A121U,≤ -4.2

row,Variant,polymerase ribozyme fitness (log ratio)
1,G50A U53A U55A U56A G67C G92A G126U,≤ -4.2
2,A24U A66G,-3.16
3,A41G A60U U130C,-0.614
4,A21C A26U A60C G70C G81A G84U G92A A115U,≤ -4.2
5,G83A A110C C123G,≤ -4.2
6,A49C U55A,≤ -4.2
7,A26U A98G U127G,≤ -4.2
8,G62A G65A G117U U144A,-3.79
9,A21G C27U A52C C93G A110U G152U,≤ -4.2
10,A12G U55A G71A G80C,≤ -4.2
11,U56A U78G G92A U144A,≤ -4.2
12,A3U U82G U104G,-1.04
13,A39U U44C U53A G62U G86A,≤ -4.2
14,U53A G83A C114U,-3.28
15,C5G C36U C96G,-2.51
16,A52U U61G A91G C96A G117C,-3.76
17,A16G G94A G143C,-3.22
18,C75G C85U C87A A113G,≤ -4.2
19,U145C U146G,0.121
20,A40U C87A,-3.87
21,G81C C103U U134G,-2.49

row,Variant,polymerase ribozyme fitness (log ratio)
1,G50A C57A C76G C93G,≤ -4.2
2,A40C C93A C99U G133C,-3.98
3,A41U A89U A91C,-3.97
4,C5A A12U,0.264
5,A21C G25C U53A,-3.09
6,A21C A60U,-0.52
7,A47C U77G U130G,≤ -4.2
8,C14U A17G G83A C108U,≤ -4.2
9,C27U C76U,-1.42
10,C51A C85A U134C,-2.88
11,C93A A150G,-3.51
12,G50C C69A C79A U82G U90G A107G A120G C129G U139G C149G,≤ -4.2
13,U7C U9G C54U A107C U127A,≤ -4.2
14,G62A G140A,-3.95
15,G48U A73G A122C U146C,-0.965
16,G81A A89C A119U C132G U135C G143C U148A,≤ -4.2
17,C129G,-2.45
18,A30G A47U A64G G94A,-3.57
19,C69G G86C A121C,≤ -4.2
20,A23G G50C G84U C85G A150C,-3.98
21,G48A G88A U134C U144G,≤ -4.2

row,Variant,polymerase ribozyme fitness (log ratio)
1,C35A A49C U56C G71A C72U G92A A115C,-3.21
2,A17U U33G G34C A47G,≤ -4.2
3,A12G C14G A52C G67A G124A A137C,≤ -4.2
4,C10G U33G G42C G50U G74C,≤ -4.2
5,U6G U13G U44A A60G C69G C93A C118A,≤ -4.2
6,A73U C95A U104G,-4.05
7,A19U G86A,-2.04
8,C54G C87A,≤ -4.2
9,G83C C116A A121C,0.158
10,U6A U7G U31C G34A A41U,-3.68
11,C10A C51U C93U U111G,≤ -4.2
12,U4C A12G A73G C93U G152A,-3.07
13,C32U C96G A142U,-3.35
14,A16C A17G C57U G86A G133U,≤ -4.2
15,C8G A28U C87U C105U,≤ -4.2
16,A16C C85U C95A C132U,-3.71
17,A3U G25C C38U C85A C116A C123U,-2.27
18,C99G C118U U148A,≤ -4.2
19,G50C A64G A89C G94C U101G A106U G133U,-4.12
20,A40G U45A A47C C99U A115C G124C,≤ -4.2
21,A29U G34C G48C G80A U82A C105A A115G U151A,≤ -4.2
